Data as given in US20120121579A1, “TREATMENT OF ONCOSTATIN M RECEPTOR BETA MEDIATED HEART FAILURE” (MAX-PLANCK-GESELLSCHAFT ZUR FORDERUNG DER WISSENSCHAFTEN …, priority 2009, published 2012).
“Also recorded” adds a separate entry of the source.

How the values were obtained:
[1] = tested on: cardiomyocytes; assay: Cytokine-induced FGP / dedifferentiation markers in cultured adult cardiomyocytes (Western blot); assay type: cell-based, rat; settings: 20 ng/ml of cytokines, 10d of serum-free culture
Experimental: (§1) MCP-1 transgenic animals, intraperitoneally injection of oncostatin M and culture of adult cardiomyocytes. The generation of transgenic mice (from FVB/N mice) with cardiac restricted overexpression of monocyte chemotactic protein-1 has been previously described (Kolattukudy et al. 1998). 6 months old FVB mice were injected intraperitoneally twice daily with a volume of 0.2 ml of phosphate buffered saline containing 5% fetal calf serum without (CON) or with 60 ng oncostatin M (OSM) per gram of animal for fourteen days. Ventricular cardiac myocytes of 6-mo-old rats were isolated as previously described (Kubin et al. 1999). Myocytes were plated at a density of 1.5×10^4 cells/cm^2 on laminin-coated (10 μg/ml; Sigma) chamber slides or 6 well dishes (Nunc) in basic medium. Myocytes were allowed to recover for 2 days in 2% fetal calf serum (FCS). Thereafter, basic medium, FCS, 50 ng/ml insulin-like growth factor-1 or 20 ng/ml of cytokines were added as indicated. Media were replaced every other day. UO126 (Cell Signaling Technology) was added 1 h prior to stimulation. All experiments were performed in duplicate and constantly treated with 10 μM 1-(β-D-arabinofuranosyl)cytosine to prevent nonmyocyte growth. Determination of secreted ANP by Western Blot was performed after ultrafiltration (Millipore).
(§2) Preparation of Protein Extracts and Western Blot Analysis. Tissue Samples were Sonicated in Lysis buffer (0.1M Tris-HCl, 10% sodium dodecylsulfate (SDS), 10 mM ethylenediamine tetraacetic acid, 40 mM dithiothreitol (DTT); pH 8.0) containing inhibitors as previously described (Vogel et al. 2006). Cultures were washed twice with PBS and harvested by scraping in lysis buffer. After heating for 1 minute at 99° C. debris was removed by centrifugation for 2 min at 14000 g. Twenty micrograms of protein extracts were separated on 4%-12% SDS-PAGE gradient gels and processed as previously described (Vogel et al. 2006). Immunoreactive proteins were visualized on the VersaDoc (BioRad) and analyzed using the QuantityOne software (BioRad).

[2] = tested on: cardiomyocytes; assay: Morphology of cultured adult cardiomyocytes: lengthening, sarcomeres, α-SM actin, cell growth (phase contrast, immunostaining); assay type: cell-based, rat; settings: for inhibition of OSM-induced cell lengthening: OSM-stimulated cardiomyocytes, serum-free
Experimental: as §1
(§3) Phase-contrast micrographs, immunocytochemistry and fluorescence microscopy. Phase-contrast micrographs were taken with a 20× lens. For immunocytochemistry and fluorescence microscopy samples were processed as previously described (Kubin et al. 1999).

[3] = tested on: Erk1/2; assay: OSM-induced Erk1/2 activation in cultured cardiomyocytes (Western blot); assay type: cell-based, rat; settings: after 10 minutes of OSM
Experimental: as §1, with “Determination of secreted ANP by Western Blot was performed after ultrafiltration (Millipore).” left out
(§4) Preparation of Protein Extracts and Western Blot Analysis. […] Immunoreactive proteins were visualized on the VersaDoc (BioRad) and analyzed using the QuantityOne software (BioRad).

[4] = tested on: OSM treated cardiomyocytes; assay: Inhibition of OSM-induced FGP in cultured cardiomyocytes (Western blot of 95 kDa B-Raf, α-SM actin, destrin, secreted ANP); assay type: cell-based, rat; settings: after 10 days of OSM
Experimental: as §1, with “Determination of secreted ANP by Western Blot was performed after ultrafiltration (Millipore).” left out
as §4

[5] = tested on: gp130/Raf/Erk axis; assay: Intraperitoneal oncostatin M treatment of mice, Western blot and immunostaining of cardiac tissue; assay type: in vivo, mouse
Experimental: as §1, §2, §3

[6] = 60 ng OSM per gram i.p. twice daily for fourteen days

In the case of “MCP-1: monocyte chemotactic protein-1, recombinant mouse protein”, the “induction of FGP / dedifferentiation (re-expression of the 95 kDa B-Raf, α-SM actin and destrin)” value (“induction of FGP / dedifferentiation” for short) [1] is reported as “neither TNF-α nor MCP-1 induced FGP”.

For TNF-α, the “induction of FGP / dedifferentiation” value [1] was “neither TNF-α nor MCP-1 induced FGP”.

For N#CC(=C(/N)Sc1ccccc1N)/C(C#N)=C(/N)Sc1ccccc1N [UO126], the “inhibition of OSM-induced cell lengthening” value ([2]; 8 days) was “completely abolished OSM-induced lengthening; also recorded: abolishment of cell lengthening”, the “inhibition of OSM-induced cell lengthening” value ([2]; 8 days, listed as UO) was “abolishes this effect” and the “inhibition of OSM-induced Erk1/2 activation (phosphorylation)” value [3] was “abolished the activation of Erk1/2; also recorded: inhibition of Erk1/2 activation”. The “inhibition of OSM-induced re-expression of α-SM actin, the 95 kDa B-Raf and destrin (FGP)” value [4] was “complete inhibition of the reexpression; also recorded: loss of re-expression of α-SM actin, the 95 kDa B-Raf and destrin; also recorded: abolishment of cell lengthening, the reexpression of ANP, α-SM actin and the 95 kDa B-Raf isoform” and the “secretion of ANP by OSM-treated cardiomyocytes” value [4] was “loss of secreted atrial natriuretic peptide; also recorded: reduced secretion of ANP”.

B1: cardiotrophin: recombinant mouse cytokine of the interleukin-6 class (protein, UniProt Q60753 1-203, looked up)
Cardiotrophin-1: MSQREGSLEDHQTDSSISFLPHLEAKIRQTHNLARLLTKYAEQLLEEYVQQQGEPFGLPGFSPPRLPLAGLSGPAPSHAGLPVSERLRQDAAALSVLPALLDAVRRRQAELNPRAPRLLRSLEDAARQVRALGAAVETVLAALGAAARGPGPEPVTVATLFTANSTAGIFSAKVLGFHVCGLYGEWVSRTEGDLGQLVPGGVA
B1 was tested, and the “induction of FGP / dedifferentiation” value [1] was “only a limited capacity to induce dedifferentiation”.

B2: 11-6: interleukin-6, recombinant mouse cytokine (protein, UniProt P08505 25-211, looked up)
Interleukin-6: FPTSQVRRGDFTEDTTPNRPVYTTSQVGGLITHVLWEIVEMRKELCNGNSDCMNNDDALAENNLKLPEIQRNDGCYQTGYNQEICLLKISSGLLEYHSYLEYMKNNLKDNKKDKARVLQRDTETLIHIFNQEVKDLHKIVLPTPISNALLTDKLESQKEWLRTKTIQFILKSLEEFLKVTLRSTRQT
With B2 the “induction of FGP / dedifferentiation” value [1] was “only a limited capacity to induce dedifferentiation”.

B3: OSM: mouse oncostatin M, recombinant cytokine obtained from Sigma (protein)
chain: ANRGCSNSSSQLLSQLQNQANLTGNTESLLEPYIRLQNLNTPDLRAACTQHSVAFPSEDTLRQLSKPHFLSTVYTTLDRVLYQLDALRQKFLKTPAFPKLDSARHNILGIRNNVFCMARLLNHSLEIPEPTQTDSGASRSTTTPDVFNTKIGSCGFLWGYHRFMGSVGRVFREWDDGSTRSRR
In the case of B3, the “induction of FGP / dedifferentiation” value [1] is reported as “induces more potently FGP than LIF”, the “re-expression of α-SM actin (immunostaining)” value ([2]; 2% serum, 12 days) is reported as “massive re-expression of α-SM actin throughout the myocyte” and the loss of sarcomeres ([2]; 2% serum, 12 days, versus 2% serum treated controls) is reported as “massive loss of sarcomeres”. For the same molecule, the “remodelling of cardiomyocytes (cell lengthening)” value ([2]; absence of serum, 8 days) was “remodelling of cardiomyocytes primarily visible in cell lengthening”, the “P-Erk1/2 in cardiac tissue” value [5, 6] was “Moderate increases” and the “amounts of B-Raf isoforms in cardiac tissue” value [5, 6] was “increased amounts of all B-Raf isoforms”. For the same molecule, the “level of LIF in cardiac tissue” value [5, 6] was “did not change; also recorded: No changes”, the “level of α-SM actin, destrin and ANP in myocardial tissue” value [5, 6] was “increased level” and the “phosphorylation level of the serine residue 782 of gp130” value [5, 6] was “significant increases”. For the same molecule, the “amount of OSMRβ in cardiac tissue” value ([5]; 60 ng OSM per gram i.p. twice daily for fourteen days, 6 months old mice) was “significant increases” and the “heart failure phenotype after injection into mice” value ([5]; injection of OSM into mice) was “resulted into the heart failure phenotype of DCM”.
